{"source": "IntAct's records for PubMed 15611062", "parents": {"B1": {"name": "Large T antigen (Simian virus 40), P03070 (parent)", "chain": "MDKVLNREESLQLMDLLGLERSAWGNIPLMRKAYLKKCKEFHPDKGGDEEKMKKMNTLYKKMEDGVKYAHQPDFGGFWDATEIPTYGTDEWEQWWNAFNEENLFCSEEMPSSDDEATADSQHSTPPKKKRKVEDPKDFPSELLSFLSHAVFSNRTLACFAIYTTKEKAALLYKKIMEKYSVTFISRHNSYNHNILFFLTPHRHRVSAINNYAQKLCTFSFLICKGVNKEYLMYSALTRDPFSVIEESLPGGLKEHDFNPEEAEETKQVSWKLVTEYAMETKCDDVLLLLGMYLEFQYSFEMCLKCIKKEQPSHYKYHEKHYANAAIFADSKNQKTICQQAVDTVLAKKRVDSLQLTREQMLTNRFNDLLDRMDIMFGSTGSADIEEWMAGVAWLHCLLPKMDSVVYDFLKCMVYNIPKKRYWLFKGPIDSGKTTLAAALLELCGGKALNVNLPLDRLNFELGVAIDQFLVVFEDVKGTGGESRDLPSGQGINNLDNLRDYLDGSVKVNLEKKHLNKRTQIFPPGIVTMNEYSVPKTLQARFVKQIDFRPKDYLKHCLERSEFLLEKRIIQSGIALLLMLIWYRPVAEFAQSIQSRIVEWKERLDKEFSLSVYQKMKFNVAMGIGVLDWLRNSDDDDEDSQENADKNEDGGEKNMEDSGHETGIDSQSQGSFQAPQSSQSVHDHNQPYHICRGFTCFKKPPTPPPEPET"}}, "data": [{"variants_of": "B1", "settings": "with fbxw7_human FBXW7, Q969H0", "values": [{"variant": "T701A", "effect of a mutation on the interaction": "decreasing interaction"}]}, {"variants_of": "B1", "settings": "with fbw1b_human FBXW11, Q9UKB1", "values": [{"variant": "T701A;E705A", "effect of a mutation on the interaction": "decreasing interaction"}]}, {"variants_of": "B1", "settings": "with fbw1a_human BTRC", "values": [{"variant": "T701A;E705D", "effect of a mutation on the interaction": "decreasing interaction"}]}]}
